Tests used:
Assay in all cases: SPOT array
[1] = target: T1, Bzz1-2, P38822; details: median of control spots 4538
T1 sequence (P38822 568-633, looked up): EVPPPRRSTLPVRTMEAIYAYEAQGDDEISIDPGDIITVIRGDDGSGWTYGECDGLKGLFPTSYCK

[2] = target: Bem1-1, P29366; details: median of control spots 4282
[3] = target: T2, Lsb4, P32793; details: median of control spots 397
T2 sequence (P32793 402-468, looked up): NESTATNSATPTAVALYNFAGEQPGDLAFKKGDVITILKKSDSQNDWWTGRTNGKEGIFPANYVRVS

[4] = target: T3, Sla1-2, P32790; details: median of control spots 712
T3 sequence (P32790 60-140, looked up): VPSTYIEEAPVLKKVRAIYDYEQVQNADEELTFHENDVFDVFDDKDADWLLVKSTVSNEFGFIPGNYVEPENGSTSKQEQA

[5] = target: GST; details: median of control spots 978
[6] = target: T4, Hof1, Q05080; details: median of control spots 4086
T4 sequence (Q05080 590-669, looked up): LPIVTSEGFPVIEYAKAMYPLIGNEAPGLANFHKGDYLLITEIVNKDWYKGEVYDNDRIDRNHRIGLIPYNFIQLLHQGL

[7] = target: T5, Nbp2, Q12163; details: median of control spots 357
T5 sequence (Q12163 103-180, looked up): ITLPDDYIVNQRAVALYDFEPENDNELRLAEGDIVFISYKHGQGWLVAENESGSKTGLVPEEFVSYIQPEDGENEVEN

[8] = target: T6, Bbc1, P47068; details: median of control spots 796
T6 sequence (P47068 1-78, looked up): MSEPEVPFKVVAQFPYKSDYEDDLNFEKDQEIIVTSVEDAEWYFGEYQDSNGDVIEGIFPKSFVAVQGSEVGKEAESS

[9] = target: T7, Boi1, P38041; details: median of control spots 1162
T7 sequence (P38041 1-86, looked up): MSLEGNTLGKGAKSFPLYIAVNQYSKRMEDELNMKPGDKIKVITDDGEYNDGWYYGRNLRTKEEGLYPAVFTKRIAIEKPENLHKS

[10] = target: T8, Pin3, Q06449; details: median of control spots 2171
T8 sequence (Q06449 53-122, looked up): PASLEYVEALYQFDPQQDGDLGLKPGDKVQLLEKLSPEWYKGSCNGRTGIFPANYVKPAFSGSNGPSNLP

[11] = target: T9, Bud14, P27637; details: median of control spots 956
T9 sequence (P27637 247-328, looked up): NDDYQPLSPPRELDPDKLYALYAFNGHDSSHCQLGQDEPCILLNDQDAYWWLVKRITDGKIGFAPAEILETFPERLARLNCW

[12] = target: Myo3, P36006; details: median of control spots 468
[13] = target: T10, Cdc25, P04821; details: median of control spots 969
T10 sequence (P04821 50-136, looked up): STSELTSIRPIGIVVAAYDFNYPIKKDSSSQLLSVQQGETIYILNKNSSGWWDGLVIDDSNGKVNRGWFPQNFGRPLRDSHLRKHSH

[14] = target: T11, Boi2, P39969; details: median of control spots 1161
T11 sequence (P39969 32-116, looked up): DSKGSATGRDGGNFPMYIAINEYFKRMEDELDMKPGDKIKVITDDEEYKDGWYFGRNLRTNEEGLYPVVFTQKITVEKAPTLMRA

[15] = target: T12, Fus1, P11710; details: median of control spots 1200
T12 sequence (P11710 432-512, looked up): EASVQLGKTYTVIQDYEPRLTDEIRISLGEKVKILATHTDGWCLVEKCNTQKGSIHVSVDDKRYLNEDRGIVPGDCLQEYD

[16] = target: T13, Abp1, P15891; details: median of control spots 935
T13 sequence (P15891 535-592, looked up): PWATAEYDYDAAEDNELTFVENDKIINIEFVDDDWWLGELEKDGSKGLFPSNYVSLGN

[17] = target: T14, Myo5, Q04439; details: median of control spots 471
T14 sequence (Q04439 1072-1160, looked up): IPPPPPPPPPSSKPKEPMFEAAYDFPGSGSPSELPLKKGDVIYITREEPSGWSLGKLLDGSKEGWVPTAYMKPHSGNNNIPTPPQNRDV

[18] = target: T15, Lsb3, P43603; details: median of control spots 406
T15 sequence (P43603 385-451, looked up): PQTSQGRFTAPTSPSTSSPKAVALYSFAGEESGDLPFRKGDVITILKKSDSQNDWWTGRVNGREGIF

[19] = target: Bem1-2, P29366; details: median of control spots 4347
Chain of Bem1-2, P29366 (P29366 139-227): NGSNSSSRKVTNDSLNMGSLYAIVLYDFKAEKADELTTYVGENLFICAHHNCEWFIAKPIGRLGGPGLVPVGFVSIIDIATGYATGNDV

[20] = target: T16, Lsb1, P53281; details: median of control spots 388
T16 sequence (P53281 45-122, looked up): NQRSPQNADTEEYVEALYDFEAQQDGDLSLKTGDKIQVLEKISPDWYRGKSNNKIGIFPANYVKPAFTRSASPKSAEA

[21] = target: Rvs167, P39743; details: median of control spots 2707
Chain of Rvs167, P39743 (P39743 419-482): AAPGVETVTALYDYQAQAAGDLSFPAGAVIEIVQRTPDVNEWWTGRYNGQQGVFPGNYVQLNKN

[22] = target: T17, Pex13, P80667; details: median of control spots 1341
T17 sequence (P80667 295-386, looked up): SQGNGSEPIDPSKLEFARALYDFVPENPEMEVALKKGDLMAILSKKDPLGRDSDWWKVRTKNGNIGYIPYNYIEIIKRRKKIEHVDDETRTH

[23] = target: T18, Cyk3, Q07533; details: median of control spots 1451
T18 sequence (Q07533 1-83, looked up): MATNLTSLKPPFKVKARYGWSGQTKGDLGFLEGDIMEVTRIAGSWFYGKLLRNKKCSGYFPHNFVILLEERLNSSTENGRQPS

[24] = target: Sho1, P40073; details: median of control spots 1148
Chain of Sho1, P40073 (P40073 287-367): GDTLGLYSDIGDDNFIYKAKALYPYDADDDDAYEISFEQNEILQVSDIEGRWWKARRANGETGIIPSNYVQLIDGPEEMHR

[25] = target: T19, Sla1-3, P32790; details: median of control spots 5475
T19 sequence (P32790 344-424, looked up): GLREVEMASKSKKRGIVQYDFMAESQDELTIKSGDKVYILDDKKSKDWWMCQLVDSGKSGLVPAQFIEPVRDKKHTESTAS

[26] = target: T20, Hse1, P38753; details: median of control spots 1727
T20 sequence (P38753 208-285, looked up): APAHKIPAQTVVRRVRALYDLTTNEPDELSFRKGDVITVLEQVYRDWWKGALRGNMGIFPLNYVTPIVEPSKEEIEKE

[27] = target: T21, Bzz1-1, P38822; details: median of control spots 4446
T21 sequence (P38822 478-572, looked up): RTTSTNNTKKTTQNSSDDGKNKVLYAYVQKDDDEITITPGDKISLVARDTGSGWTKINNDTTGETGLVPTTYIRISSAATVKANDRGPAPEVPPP

Chain of Bem1-1, P29366 (P29366 55-141): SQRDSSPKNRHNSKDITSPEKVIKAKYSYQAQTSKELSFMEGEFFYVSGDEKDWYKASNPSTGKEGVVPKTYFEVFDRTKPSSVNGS

Binder | SPOT intensity [1] | SPOT intensity [2] | SPOT intensity [3] | SPOT intensity [4] | SPOT intensity [5] | SPOT intensity [6] | SPOT intensity [7] | SPOT intensity [8] | SPOT intensity [9] | SPOT intensity [10] | SPOT intensity [11] | SPOT intensity [12] | SPOT intensity [13] | SPOT intensity [14] | SPOT intensity [15] | SPOT intensity [16] | SPOT intensity [17] | SPOT intensity [18] | SPOT intensity [19] | SPOT intensity [20] | further results
RRTRLRPPTPLSQLL | 0 | 2 | 1 | 0 | 5 | 5 | 11 | 348 | 0 | 9 | 24 | 6 | 24 | 0 | 17 | 103 | 0 | 2 | 15 | 215 | SPOT intensity [21]: 0; SPOT intensity [22]: 4; SPOT intensity [23]: 7; SPOT intensity [24]: 39; SPOT intensity [25]: 35; SPOT intensity [26]: 17; SPOT intensity [27]: 2
TIRRRAPLSLLESHT | 8 | 2 | 1 | 1 | 1 | 4 | 11 | 15 | 1 | 11 | 13 | 0 | 13 | 2 | 3 | 46 | 0 | 0 | 4 | 29 | SPOT intensity [21]: 3; SPOT intensity [22]: 3; SPOT intensity [23]: 3; SPOT intensity [24]: 52; SPOT intensity [25]: 38; SPOT intensity [26]: 16; SPOT intensity [27]: 3
